Values of other authors, collected in paper PMC6933782 (ACS Omega, 2019).

Conditions: ref 26 (Jagoda et al., 2015)

For “^18F-labeled RSA: ^18F-labeled rat serum albumin (RSA), literature, ref 26”, which “retention of uptake in the heart and peripheral vasculature” value (PET, up to stated time postinjection) is on record?
Its value is “up to 2.5 h”.

What about the “uptake in PET” value of the same substance?
Its value is “uptake in the heart and peripheral vasculature”.
